Measured values as given in article PMC12685370, “Loop-mediated regulation and base flipping drive RNA cleavage by human mitochondrial PNPase” (Nucleic Acids Research, 2025).

How the values were obtained:
[1] = target: T1, hPNPase (human polynucleotide phosphorylase), hPNPase-TS (Homo sapiens, UniProt Q8TCS8); test: cryo-EM structure; assay type: binding; conditions: 2 mM NaH2PO4, 2 mM MgCl2, pH 8.0; active site of PH2 domain (S482-484, H450, R446), no RNA; co-substrate of phosphorolysis; also in 9NO0 with PT5 RNA
T1 construct: gene PNPT1; residues 46-783, mitochondrial targeting signal removed, C-terminal Twin-Strep-tag kept, expressed in MEXi-293E cells, homotrimer
T1 sequence (Q8TCS8 46-783): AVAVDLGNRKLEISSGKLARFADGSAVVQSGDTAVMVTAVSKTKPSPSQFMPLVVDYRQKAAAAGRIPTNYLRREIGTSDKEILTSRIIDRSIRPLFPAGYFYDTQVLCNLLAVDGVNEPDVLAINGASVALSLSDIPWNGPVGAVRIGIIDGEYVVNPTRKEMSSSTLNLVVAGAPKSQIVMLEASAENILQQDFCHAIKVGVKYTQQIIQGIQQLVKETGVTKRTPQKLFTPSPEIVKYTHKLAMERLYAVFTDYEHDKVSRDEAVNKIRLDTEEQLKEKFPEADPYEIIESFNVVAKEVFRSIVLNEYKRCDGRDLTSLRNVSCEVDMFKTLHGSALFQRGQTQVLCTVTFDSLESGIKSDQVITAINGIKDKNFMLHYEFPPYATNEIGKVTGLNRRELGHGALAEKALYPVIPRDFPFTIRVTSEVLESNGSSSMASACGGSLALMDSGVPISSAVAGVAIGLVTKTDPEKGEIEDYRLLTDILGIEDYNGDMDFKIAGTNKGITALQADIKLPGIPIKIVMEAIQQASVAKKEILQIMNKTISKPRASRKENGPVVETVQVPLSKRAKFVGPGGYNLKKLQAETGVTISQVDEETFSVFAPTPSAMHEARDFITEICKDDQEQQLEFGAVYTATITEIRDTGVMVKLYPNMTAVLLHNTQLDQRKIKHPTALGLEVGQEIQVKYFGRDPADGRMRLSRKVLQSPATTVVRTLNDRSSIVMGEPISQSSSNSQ

[2] = target: the molecule itself; test: cryo-EM structure; single-particle cryo-EM of 1.5 uM hPNPase-TS in RNA degradation buffer (10 mM HEPES pH 8.0, 50 mM NaCl, 2 mM MgCl2, 2 mM DTT, 2 mM NaH2PO4); apo (with Pi), RNA loading state (PT5 RNA) and pre-catalytic state (10 mM Na2SO4, 0.1 mM NaH2PO4, RNA); refined in C1
[3] = target: T2, hPNPase (human mitochondrial polynucleotide phosphorylase) (Homo sapiens, UniProt Q8TCS8 46-783); test: cryo-EM structure; sulfate in place of phosphate, Mg2+; pre-catalytic state, 2.2 A, 6 nt modelled; Protein SEC buffer: 20 mM HEPES-NaOH pH 8.0, 150 mM NaCl, 1 mM MgCl2, 1 mM DTT, 1% glycerol; competition as in RNA degradation assay (conditions not in material); sulfate 2 mM in the assay replacing phosphate; conditions: protein: recombinant; tags: C-terminal Twin-Strep-tag; chain copies: 3; label: 5'-FAM; single strand
T2 sequence: T1 sequence (Q8TCS8 46-783)

For O=P(O)(O)O [Pi, phosphate], the cryo-EM structure [1] was “The phosphate ion is present in each protomer and coordinated by S482-484, H450, and R446”.

B1: human polynucleotide phosphorylase (hPNPase), amino acids 46-783, with C-terminal Twin-Strep-tag (enzyme, UniProt Q8TCS8 46-783, looked up)
chain: T1 sequence (Q8TCS8 46-783)
notes: human polynucleotide phosphorylase (hPNPase), amino acids 46-783, without the N-terminal mitochondrial targeting signal; gene codon optimized for human cell lines; S1 domain not modelled in the structures; Cloned into the vector pDSG103 (IBA); Homotrimer in all cryo-EM reconstructions; also called hPNPase-TS; human mitochondrial PNPase; source: MEXi-293E cells, transfected, purified …
For B1, the “stoichiometry N” value [2] was 3.

B2: FAM_PNP_RNA_long (ssRNA)
RNA: CACAACACACACCACACACACAUAAAACAAAACAGCUACGCCAUCCUCCCCCCAAUCUA
B2: binds [3].
